Values of other authors as cited in patent US20250341526A1, “NOVEL DYES” (Quantum-Si Incorporated, priority 2024, published 2025).

Test system: amino acid at a terminal position of a polypeptide
Conditions: Table 2; amino acid at terminal position (phosphotyrosine also internal); inferred from literature and/or demonstrated by the inventors; cited from earlier work

Row | Molecule | Binding Pref.
1 | PS530: amino acid recognition protein, SEQ ID NO: 158 (protein, listed as Acropora millepora) MLCGKVFKVGEPTYSCRDCGYDNTCVLCINCFQKSIHKNHHYKMNTSGGGGVCDCGDVEAWKEGEACEIHQQ | K, R, H
2 | PS533: amino acid recognition protein, SEQ ID NO: 161 (protein, listed as Contarinia nasturtii) MVCGRVFKMNEPFYSCRECGMDPTCVLCVNCFKQSAHRHHKYKMGTSAGGGCCDCGDNEAWKQDHYCDEHTK | K, R, H
3 | PS513: amino acid recognition protein, SEQ ID NO: 141 (protein, listed as Pyrenophora seminiperda) MPCGHIFKNGEATYRCKTCTADDTCVLCARCFDASDHEGHQVFVSVSPGNSGCCDCGDDEAWVRPVHCNIHSA | K, R, H
4 | PS504: amino acid recognition protein, SEQ ID NO: 132 (protein, listed as Galleria mellonella) MLCGKVFKQGEPAYSCRECGMDNTCVLCVECFKVSPHRHHKYKMGQSGGGGCCDCGDTEAWKRDPFCERHAK | K, R, H
5 | PS519: amino acid recognition protein, SEQ ID NO: 147 (protein, listed as Manduca sexta) MLCGRVFKQGEPAYSCRECGMDNTCVLCVECFKVSAHRHHKYKMGQSGGGGCCDCGDTEAWKRDPFCELHAA | K, R, H
6 | PS509: amino acid recognition protein, SEQ ID NO: 137 (protein, Lottia gigantean) MICGHGFKTGEPTYSCRDCATDPTCVLCISCFQKSPHREHRYKMSASGGGGYCDCGDPEAWKIEPFCEQHKP | K, R, H
7 | PS506: amino acid recognition protein, SEQ ID NO: 134 (protein, listed as Capitella teleta) MLCGKVFKMGELTYSCRDCGTDPTCVLCMDCFQHSAHKKHRYKMAASGGGGYCDCGDREAWKAEPFCDVHKR | K, R, H
8 | PS532: amino acid recognition protein, SEQ ID NO: 160 (protein, listed as Schizosaccharomyces cryophilus) MSCGRIFKKGEVFYRCKTCSVDSNSALCVKCFRATDHHGHETSFTISAGSGGCCDCGNSAAWIRDMPCKIHNR | K, R, H
9 | PS523: amino acid recognition protein, SEQ ID NO: 151 (protein, listed as Saccharomycetaceae sp.) MAKSHRHTGRNCGRAFQPGEPLYRCQECAYDDTCVLCISCFNPDDHVNHHVSTHICNELHDGICDCGDAEAWNVPLHCKAEED | K, R, H
10 | PS503: amino acid recognition protein, SEQ ID NO: 131 (protein, listed as Hydra vulgaris) MFCGRLFKVGDPTYTCKDCAADPTCVFCHDCFHQSVHTKHKYKLFASQGRGGYCDCGDKEAWTNDPACNKHKE | K, R, H
11 | PS518: amino acid recognition protein, SEQ ID NO: 146 (protein, listed as Nilaparvata lugens) MVCGRVFKMGEPSYHCRECGMDATCVLCVDCFKKSSHRNHKYKMGTSIGGGCCDCGDVEAWKTEPYCEVHIA | K, R, H
12 | PS507: amino acid recognition protein, SEQ ID NO: 135 (protein, listed as Sparassis crispa) MPCGHIFKKGESCFRCKDCALDDSCVLCSKCFEATDHANHNVSFFIAQQSGGCCDCGDIEAWLVPIDCPFHPV | K, R, H
13 | PS508: amino acid recognition protein, SEQ ID NO: 136 (protein, Anabarilius graham) MLCGRVFKEGETVYSCRDCAIDPTCVLCIECFQKSVHKSHRYKMHASAGGGFCDCGDLEAWKTGPCCSQHDP | K, R, H
14 | PS526: amino acid recognition protein, SEQ ID NO: 154 (protein, listed as Maylandia zebra) MLCGRVFKEGETVYSCRDCAIDPTCVLCMDCFQDSVHKSHRYKMHASSGGGFCDCGDVEAWKIGPYCSKHDP | K, R, H
15 | PS512: amino acid recognition protein, SEQ ID NO: 140 (protein, listed as Mastacembelus armatus) MLCGRVFKEGETVYSCRDCAIDPTCVLCMDCFQDSVHKSHRYKMHASAGGGFCDCGDVEAWKIGPYCSKHDP | K, R, H
16 | PS520: amino acid recognition protein, SEQ ID NO: 148 (protein, listed as Monopterus albus) MLCGRVFKEGETVYSCRDCAIDPTCVLCMDCFQDSVHKSHRYKMHASSGGGFCDCGDVEAWKIGPCCSKHDP | K, R, H

Row | Molecule | Binding Pref.
17 | PS517: amino acid recognition protein, SEQ ID NO: 145 (protein, Harpegnathos saltator) MMCGRVFKMGEPTYSCRECGVDSTCVLCVGCFQQSAHRDHKYKMGTSGGGGCCDCGDTEAWKRDPFCEIHMV | K, R, H
18 | PS516: amino acid recognition protein, SEQ ID NO: 144 (protein, Crassostrea gigas) MLCGKVFKTGEPTYSCRDCANDPTCVLCIDCFQNGAHKNHRYKMNTSGGGGYCDCGDQEAWTSHPFCNLHSP | K, R, H
19 | PS502: amino acid recognition protein, SEQ ID NO: 130 (protein, listed as Helobdella robusta) MVCLKVFKLGEPTYSCRSVTCGMDPTCVLCVDCFQNSSHKLHKYKMSTSGGGGYCDCGDLEAWKADPLCDLHKL | K, R, H
20 | PS510: amino acid recognition protein, SEQ ID NO: 138 (protein, listed as Camponotus floridanus) MICGRMFKMGEPTYSCRQCGMDSTCVLCVDCFKQSAHRNHKYKMGTSSGGGCCDCGDTEAWKNEPFCKIHLA | K, R, H
21 | PS515: amino acid recognition protein, SEQ ID NO: 143 (protein, listed as Wasmannia auropunctata) MICGKMFKIGEPTYSCRECGMDSTCVLCVDCFKQSAHRNHKYKMGTSSGGGCCDCGDTEAWKKEPFCKTHVV | K, R, H
22 | PS505: amino acid recognition protein, SEQ ID NO: 133 (protein, listed as Brachionus plicatilis) MVCGRVFKSGEPSYFCRECGTDPTCVLCSICFRHSKHRYHKYVMMTSGGGGYCDCGDPEAWKSDPCCELHMP | K, R, H
23 | PS511: amino acid recognition protein, SEQ ID NO: 139 (protein, listed as Habropoda laboriosa) MICGKVFKMGEATYSCKECGVDPTCVLCADCFKQSAHRHHKYRMGTSSGGGFCDCGDIEAWKKEPFCNTHLA | K, R, H
24 | PS524: amino acid recognition protein, SEQ ID NO: 152 (protein, listed as Drosophila ficusphila) MVCGKVFKNGEPTYSCRECGVDPTCVLCVNCFKRSAHRFHKYKMSTSGGGGCCDCGDDEAWKKDHYCQLHLA | K, R, H
25 | PS531: amino acid recognition protein, SEQ ID NO: 159 (protein, listed as Musca domestica) MVCGKVFKIGEPTYSCRECGMDQTCVLCVNCFKQSAHRYHKYKMSTSGGGGCCDCGDEEAWKKDHYCEEHLR | K, R, H
26 | PS528: amino acid recognition protein, SEQ ID NO: 156 (protein, listed as Kluyveromyces lactis) MHSKFNHAGRICGAKFRVGEPIYRCKECSFDDTCVLCVNCFNPKDHVGHHVYTSICTEFNNGICDCGDKEAWNHELNCKGAED | K, R, H
27 | PS521: amino acid recognition protein, SEQ ID NO: 149 (protein, Lingula anatine) MLCGRVFRSGEPTYSCRDCAVDPTCVLCIDCFNNGAHRKHKYRMSTSSGGGYCDCGDKEAWKTDPLCEIHRK | K, R, H
28 | PS514: amino acid recognition protein, SEQ ID NO: 142 (protein, listed as Tribolium castaneum) MVCGRVFKLGEPTYSCRECGMDNTCVLCVNCFKNSEHRFHKYKMGTSQGGGCCDCGDVEAWKKAPFCDVHIA | K, R, H
29 | PS522: amino acid recognition protein, SEQ ID NO: 150 (protein, listed as Vombatus ursinus) MLCGKVFKSGETTYSCRDCAIDPTCVLCMNCFQSSVHKNHRYKMHTSTGGGFCDCGDTEAWKTGPFCTIHEP | K, R, H
30 | PS529: amino acid recognition protein, SEQ ID NO: 157 (protein, Chelonia mydas) MLCGKVFKGGETTYSCRDCAIDPTCVLCMDCFQNSIHKNHRYKMHTSTGGGFCDCGDTEAWKTGPLCANHEP | K, R, H
31 | PS525: amino acid recognition protein, SEQ ID NO: 153 (protein, listed as Mus musculus) MLCGKVFKSGETTYSCRDCAIDPTCVLCMDCFQSSVHKNHRYKMHTSTGGGFCDCGDTEAWKTGPFCVDHEP | K, R, H
32 | PS527: amino acid recognition protein, SEQ ID NO: 155 (protein, listed as Mizuhopecten yessoensis) MLCGKVFKYGEPTYSCRDCANDPTCVLCIDCFQKSAHKKHRYKMSTSGGGGYCDCGDSEAWKTAPFCSNHKA | K, R, H
